# Test results reported in the nanobody polyreactivity screen of Harvey et al. (2022).
# Assay: yeast display, Sf9 membrane polyspecificity reagent, FACS + sequencing; frameworks hold sequencing errors
# Procedure, shortened: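 Synthetic nanobody libraries on Saccharomyces cerevisiae BJ5465 were galactose-induced for 36–48 hours, stained 1 hour at 4 °C with 10% biotinylated, detergent-solubilized Sf9 membrane reagent and enriched on streptavidin microbeads. FACS then separated cells into low and high (top ~1%) gates by anti-HA (expression) and streptavidin (reagent binding) fluorescence. Genes were colony-PCR amplified, MiSeq 2 × 250 sequenced and CDR-length filtered. A clone's polyreactivity label is that of its gate of origin.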
row,Sequence,polyreactivity (PSR sort gate)
1,QVQLVESGGGLVQAGGSLRLSCAASGNTFYVNVMGWYRQAPGKERELVARITTSGGSTSYADSVKGRFTISRDNAKNTVYLQMNSLKPEDTAVYYCAADFPEYYLPYDYWGQGTQVTVSS,low polyreactivity
2,QVQLVESGGGLVQAGGSLRLSCAASGNTFYWNAMGWYRQAPGKERELVAAISTTGVSTYYADSVKGRFTISRDNAKNTVYLQMNSLKPEDTAVYYCAAEIIGYHTIYDYWGQGTQVTVSS,low polyreactivity
3,QVQLVESGGGLVQAGGSLRLSCAASGNTFYYAKAWYRQAPGKERELVASIRTGGSTNYADSVKGRFTISRDNAKNTVYLQMNSLKPEDTAVYYCNRDGTYTHTGWDYWRPYEYWGQGTQVTVSS,low polyreactivity
4,QVQLVESGGGLVQAGGSLRLSCAASGNTFYYNAMGWYRQAPGKEREFVATITESGTSTYYADSVKGRFTISRDNAKNTVYLQMNSLKPEDTAVYYCAAQYWYVGGIAWYDYWGQGTQVTVSS,low polyreactivity
5,QVQLVESGGGLVQAGGSLRLSCAASGNTFYYYAMGWYRQAPGKERELVASITSTARTYYADSVKGRFTISRDNAKNTVYLQMNSLKPEDTAVYYCNAKEHYATRSDSWGEGTQVTVSS,high polyreactivity
6,QVQLVESGGGLVQAGGSLRLSCAASGNTIFPSTMGWYRQAPGKEREFVAAMTWSGVSTYYADSVKGRFTISRDNAKNTVYLQMNSLKPEDTAVYYCAARGPVYVSYPRQYGYWGQGTQVTVSS,high polyreactivity
7,QVQLVESGGGLVQAGGSLRLSCAASGNTIIRYAMGWYRQAPGKERELVAAISYSGGRTYYADSVKGRFTISRDNAKNTVYLQMNSLKPEDTAVYYCAARYYPSGYRKKMYYWGQGTQVTVSS,high polyreactivity
8,QVQLVESGGGLVQAGGSLRLSCAASGNTITFNTMAWYRQAPGKEREVVAVISRSGGSTYYADSVKGRFTISRDNAKNTVYLQMNSLKPEDTAVYYCAATGFSYRYFQTRDYWGQGTQVTVSS,high polyreactivity
9,QVQLVESGGGLVQAGGSLRLSCAASGNTITWNTMGWYRQAPGKERELVAVITSDGSTYYADSVKGRFTISRDNAKNSVYLQMNRLKPEDTSVYYCNALCAEWYPEEDYWGQGTQVTVSS,low polyreactivity
10,QVQLVESGGGLVQAGGSLRLSCAASGNTLDAYAMGWYRQAPGKERELVASITYRGGSTYYADSVKGRFTISRDNAKNTVYLQMNSLKPEDTAVYYCAAAYQKSPITPKMDYWGQGTQVTVSS,low polyreactivity
11,QVQLVESGGGLVQAGGSLRLSCAASGNTLDAYTLGWDRQAPGKERELVAAISRGGTRTYYADSLKGRFTISRDNAKNTVYLQMKSLKPEDTAVYSCAAKVGYTHEYGRYDYWGQGTQVTVSS,high polyreactivity
12,QVQLVESGGGLVQAGGSLRLSCAASGNTLIQYAMGWYRQAPGKERELVAGISGSDDSTYYADSVKGRFTISRDNAKNTVYLQMNSLKPEDTAVYYCAAQVDRWKGREHDYWGQGTQVTVSS,low polyreactivity
13,QVQLVESGGGLVQAGGSLRLSCAASGNTLRPNGMGWYRQAPGKERELVAAISSGGSPYYADSVKGRFTISRDNAKNTVYLQMNSLKPEDTAVYYCAAEYWYDYWGQGTQVTVSS,low polyreactivity
14,QVQLVESGGGLVQAGGSLRLSCAASGNTYPVYAMGWYRHASGQERELDATITSGGSTNYADSVKGRFTLSRDNAKTSVYYQMNSLSPEDTAVYYCARRAVYSKRRYDYWGQGTQVTVSS,low polyreactivity
15,QVQLVESGGGLVQAGGSLRLSCAASGPIFFINAMGSYRQAPGKEREFLATISWSGGSTYYADSVKGRFTISRDNAKNTVYLQMNSLKPEDTAVYYCNAETYGSRWRRQYGYWGQGTQVTVSS,high polyreactivity
16,QVQLVESGGGLVQAGGSLRLSCAASGPIFRGYAMGWYRQAPGKERELVARITSGGRTYYADSVKGRFTISRDNAKNTVYLQMNSLKPEDTAVYYCATVGRGYDERHNYWGQGTQVTVSS,high polyreactivity

row,Sequence,polyreactivity (PSR sort gate)
1,QVQLVESGGGLVQAGGSLRLSCAASGPTFRYYAMGWYRQAPGKERELVATITGSGGSTYYADSVKGRFTISRDNAKNTVYLQMNSLKPEDTAVYYCNARKVRYPYRWYDYWGQGTQVTVSS,high polyreactivity
2,QVQLVESGGGLVQAGGSLRLSCAASGPTFSKANAMGWYRQAPVKERELVAAITDGGSTYADSVKGRFTISRDNAKNTVYLQINSLKPEDTAVYYCAKDTEVFYDASYDYWGQGTQVTVSS,low polyreactivity
3,QVQLVESGGGLVQAGGSLRLSCAASGPTFYEYAMGWYRQAPGKERELVARITRGGSTYYADSVKGRFTISRDNAKNTVYLQMNSLKPEDTAVYYCAAPYKDLYPYYEYDYWGHGTQVTVSS,low polyreactivity
4,QVQLVESGGGLVQAGGSLRLSCAASGPTFYRYAMGRYRQAPGKERELVAAISASGGSTYYADSVKGRFTISRDNAKNTVYLQMNSLKPEDTAVYYCAARGWYSLYEFYYWGQGTQVTVSS,high polyreactivity
5,QVQLVESGGGLVQAGGSLRLSCAASGPTNAMGWYRQAPGKERELVAAITKSGGSTYYADSVKGRFTISRDNAKNTVYLQMNSLKPEDTAVYYCALILRHTAYYYWGQGTQVTVSS,high polyreactivity
6,QVQLVESGGGLVQAGGSLRLSCAASGRFFGRHAMGWYRQAPGKERELVAVISKRGSSTSYADSVKGRFTISRDNAKNTVYLQMNSLKPEDTAVYYCNVFRVAYYATSTYGYDYWGQGTQVTVSS,high polyreactivity
7,QVQLVESGGGLVQAGGSLRLSCAASGRFLWYNAMGWYRQAPGTERELVAAITRGGSTHYADSVKGRFTLSRDNAKNTVYLQMNSLKPEDTAVYYCAVSYRSFPYYWERYYSWGQGTQVTVSS,high polyreactivity
8,QVQLVESGGGLVQAGGSLRLSCAASGRICDSYTMGWYRQAPGKERELVAAISRGGGSTYYADSVKGRFTISRDNAQNTVYLQMNSLKPEDTAVYYCAASSYLNSRFKFDYWGQGTQVTVSS,low polyreactivity
9,QVQLVESGGGLVQAGGSLRLSCAASGRICINDMGWYRQAPGKERELVAAIRSDGSTNYADSVKGRFTISRDNAKNTVYLQMNSLKPEDTAVYYCNVDGYYLFVRGYEYWGQGTQVTVSS,low polyreactivity
10,QVQLVESGGGLVQAGGSLRLSCAASGRIFAAYAMGWYRQAPGKERELVASISRGGSTNYADSVKGRFTISRDNAKNTVYLQMNSLKPEDTAVYYCAARQGSTYYAYYYWGQGTQVTVSS,high polyreactivity
11,QVQLVESGGGLVQAGGSLRLSCAASGRIFAGYAMGWYRQAPGKERELVATISSGGSTYYADSVKGRFTISRDNAKNTVYLQMNSLKPEDTAVYYCAAEYGTRQYSSYYKLFNYWGQGTQVTVSS,low polyreactivity
12,QVQLVESGGGLVQAGGSLRLSCAASGRIFAGYGMGWYRQAPGKARELVAAISSGGSTYYADSVKGRFTISRDNAKNTVYLQMNSLKPEDTAVYYCATDGQSVPDDYYQNVDYDYWGQGTQLTVSS,low polyreactivity
13,QVQLVESGGGLVQAGGSLRLSCAASGRIFAGYVMGWYRQAPGKERELVAAISGSGASTYYADSVKGRFTISRDNAKNTVYLQMNSLKPEDTAVYYCAADKPGIFSRFDYWGQGTQVTVSS,low polyreactivity
14,QVQLVESGGGLVQAGGSLRLSCAASGRIFAHNAMGWYRQAPGKERELVAAISGTGGRTYYADSVKGRFTISRDNAKNTVYLQMNSLKPEDTAVYYCARRPTHRTGVLDWEYDYWGQGTQVTVSS,low polyreactivity
15,QVQLVESGGGLVQAGGSLRLSCAASGRIFAKYAMGWSRQAPGTERELVAAISWRGGRTYYADSVKGRFTISRDNAKNTVYLQMNSLKPEDTAVYYCNAVGSRAYVASAWTQMDYWGQGTQVTVSS,high polyreactivity
